This note sets out measurements from patent publication US20220143145A1.

Experiment [1] deals with IL10 receptor (IL10Rα) on mouse sensory neurons (mouse) (UniProt Q61727). In words: cell-based or functional assay.
In experiment [2] the target is IL4 receptor (IL4Rα) on mouse sensory neurons (mouse) (UniProt P16382). In words: cell-based or functional assay.
Sequence of UniProt P16382 (P16382 26-810): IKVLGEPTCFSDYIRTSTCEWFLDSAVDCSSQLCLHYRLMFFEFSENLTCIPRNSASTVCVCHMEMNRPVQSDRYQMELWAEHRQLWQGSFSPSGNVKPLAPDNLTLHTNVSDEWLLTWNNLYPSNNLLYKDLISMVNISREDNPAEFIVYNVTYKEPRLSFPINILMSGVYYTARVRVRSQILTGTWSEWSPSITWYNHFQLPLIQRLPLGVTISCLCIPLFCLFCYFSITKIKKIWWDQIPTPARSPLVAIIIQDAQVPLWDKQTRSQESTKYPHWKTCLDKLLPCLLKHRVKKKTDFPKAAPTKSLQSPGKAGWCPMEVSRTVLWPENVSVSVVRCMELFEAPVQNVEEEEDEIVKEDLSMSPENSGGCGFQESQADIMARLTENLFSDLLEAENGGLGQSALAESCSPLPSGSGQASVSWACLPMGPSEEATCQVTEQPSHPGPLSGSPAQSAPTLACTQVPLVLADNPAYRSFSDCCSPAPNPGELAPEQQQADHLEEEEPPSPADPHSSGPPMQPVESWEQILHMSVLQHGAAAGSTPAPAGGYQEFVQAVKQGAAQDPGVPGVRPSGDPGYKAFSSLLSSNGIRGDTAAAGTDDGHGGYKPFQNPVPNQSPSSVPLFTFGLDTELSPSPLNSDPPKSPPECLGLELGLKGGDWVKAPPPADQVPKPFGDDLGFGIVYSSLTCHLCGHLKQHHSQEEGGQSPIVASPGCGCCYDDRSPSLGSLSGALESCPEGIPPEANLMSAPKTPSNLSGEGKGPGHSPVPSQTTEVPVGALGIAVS

Sequence of UniProt Q61727 (Q61727 17-575): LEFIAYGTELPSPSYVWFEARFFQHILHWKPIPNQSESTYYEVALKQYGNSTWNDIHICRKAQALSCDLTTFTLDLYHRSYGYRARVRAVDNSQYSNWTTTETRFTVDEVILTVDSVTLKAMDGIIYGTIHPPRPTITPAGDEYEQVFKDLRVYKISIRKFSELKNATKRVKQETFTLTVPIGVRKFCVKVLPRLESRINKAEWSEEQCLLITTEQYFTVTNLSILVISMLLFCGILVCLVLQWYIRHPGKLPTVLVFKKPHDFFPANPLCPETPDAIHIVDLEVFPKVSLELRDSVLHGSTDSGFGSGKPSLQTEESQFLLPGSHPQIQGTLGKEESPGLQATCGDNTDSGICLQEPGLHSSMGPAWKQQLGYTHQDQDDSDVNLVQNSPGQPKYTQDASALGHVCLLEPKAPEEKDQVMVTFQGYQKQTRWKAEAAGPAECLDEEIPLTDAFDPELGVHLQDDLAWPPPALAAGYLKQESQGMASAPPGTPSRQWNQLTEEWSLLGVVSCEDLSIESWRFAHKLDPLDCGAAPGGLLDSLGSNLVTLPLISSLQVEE

Regarding IL4-10 fusion protein (ligand), the concentration that completely reversed TNFα-induced sensitization of capsaicin-evoked calcium influx in experiment [1] and in experiment [2] was 3 nM each time.
